Measurements from paper PMC7797036.

Legend:
[1] = target: APOBEC1 (A1), RNase A treated (UniProt P41238); test: fluorescence anisotropy
[2] = tested on: APOBEC1 (A1), RNase A untreated; test: fluorescence anisotropy
[3] = tested on: APOBEC3H haplotype VII; test: fluorescence anisotropy
[4] = target: APOBEC3C (UniProt Q9NRW3 1-190); test: EMSA
Chain of APOBEC3C (Q9NRW3 whole entry): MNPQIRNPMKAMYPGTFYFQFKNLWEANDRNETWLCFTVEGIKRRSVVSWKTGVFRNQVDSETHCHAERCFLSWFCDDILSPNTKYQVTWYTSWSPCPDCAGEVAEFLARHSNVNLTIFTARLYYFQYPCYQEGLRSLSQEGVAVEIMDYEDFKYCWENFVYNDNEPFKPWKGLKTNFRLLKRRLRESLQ

Chain of APOBEC1 (A1), RNase A treated (P41238 whole entry): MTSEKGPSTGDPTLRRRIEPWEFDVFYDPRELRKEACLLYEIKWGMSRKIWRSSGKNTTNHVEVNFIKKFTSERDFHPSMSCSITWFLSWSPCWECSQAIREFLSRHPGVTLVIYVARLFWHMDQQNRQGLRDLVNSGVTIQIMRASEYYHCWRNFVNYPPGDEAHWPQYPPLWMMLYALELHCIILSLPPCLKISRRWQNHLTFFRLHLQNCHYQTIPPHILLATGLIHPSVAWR

Row | Molecule | Kd [1] | binding signal (fold Kd increase vs no RPA) [1] | Kd [2] | binding signal (fold Kd increase vs no RPA) [3] | binding result [4]
1 | 118 nt ssDNA with two 5'TTC motifs 63 nt apart | 343 nM | 9 | 351 nM | 3 | –
2 | ATTATTATTATTCGAATGGATTTATTTATTTATTTATTTATTT (ssDNA) [43 nt ssDNA] | – | – | – | – | binds
